The source of these data is patent US12662541B2, “Antibody-drug conjugates against the receptor tyrosine kinase EphA5” (Rutgers, The State University of New Jersey, priority 2021, dated 2026).

For test [1], the target named is T1, rhEphA5 antigen (Homo sapiens, UniProt P54756).
T1 construct: purchased R and D systems 3036-A5
Kind of test: KD (M). The method, then: (§1) Table printed on a drawing sheet, FIG. 13
Head of the field: KD (M)
(§2) The patent's description of the figure: FIG. 13 is a table illustrating the single cycle kinetic parameters of chimeric (VH0/VK0) and humanized 11C12 variants (tested as cell culture supernatants) binding to rhEphA5 antigen as determined using the Biacore T200. The relative KD was calculated by dividing the KD of the humanized variant by that of the VH0/VK0 (top row) assayed in the same experiment. The variants marked with ‘*’ have KD values that are within two-fold of, or are better than, the chimeric antibody. The chimeric and selected variants marked in ‘#’ were identified as the main leads for purification. […]
(§3) Where the first naming reader finds the target: description_of_the_figure: humanized 11C12 variants (tested as cell culture supernatants) binding to rhEphA5 antigen as determined using the Biacore T200

The target in test [2] is T1, rhEphA5 antigen. Briefly: kd (1/s). The method, then: as §1
Head of the field: kd (1/s)
as §2, §3

In test [3] the target is T1, rhEphA5 antigen. Briefly: ka (1/Ms). The method, then: as §1
Head of the field: ka (1/Ms)
as §2, §3

B1: VH2/VK3: humanized anti-EphA5 antibody, VH SEQ ID NO:3, VL SEQ ID NO:11 (antibody, V domains shown)
VH: EVTLVESGGGLVQPGGSLKLSCAASGFTFSTFGIHWVRQAPGKGLEWVAYISGASTTIYYADTVKGRFTISRDNSKNTLYLQMNSLRSEDTAMYYCARYGTSFPYGLDYWGQGTLVTVSS
VL: DIVMTQSPDSLAVSLGERATINCKASQSVDYDGDSYMNWYQQKPGKAPKLLIYGASNLESGIPDRFSGSGSGTDFTLTISRLEPEDAAVYYCQQSNEDPFTFGQGTKLEIK
B1 registered a Kd with rhEphA5 antigen [1] of 985 pM. Further, the “kd” value with rhEphA5 antigen [2] was determined as 0.00132 s⁻¹.

B2: VH5/VK5: humanized anti-EphA5 antibody, VH SEQ ID NO:6, VL SEQ ID NO:13 (antibody, V domains shown)
VH: EVQLVESGGGLVQPGGSLKLSCAASGFTFSTFGIHWVRQAPGKGLEWVAYISGASTTIYYADSVKGRFTISRDNSKNTLYLQMNSLRAEDTAVYYCARYGTSFPYGLDYWGQGTLVTVSS
VL: DIVMTQSPDSLAVSLGERATINCKSSQSVDYDGDSYMNWYQQKPGKAPKLLIYGASNLESGIPDRFSGSGSGTDFTLTISRLEPEDAAVYYCQQSNEDPFTFGQGTKLEIK
As for B2, in the test with rhEphA5 antigen [2], the “kd” value is 0.0014 s⁻¹. For the same molecule, the “ka” value with rhEphA5 antigen [3] stood at 1.37e-06 M⁻¹ s⁻¹.

B3: VH5/VK1: humanized anti-EphA5 antibody, VH SEQ ID NO:6, VL SEQ ID NO:9 (antibody, V domains shown)
VH: EVQLVESGGGLVQPGGSLKLSCAASGFTFSTFGIHWVRQAPGKGLEWVAYISGASTTIYYADSVKGRFTISRDNSKNTLYLQMNSLRAEDTAVYYCARYGTSFPYGLDYWGQGTLVTVSS
VL: DIVMTQSPGSLAVSLGERATINCKASQSVDYDGDSYMNWYQQKPGKAPKLLIYGASNLESGIPDRFSGSGSGTDFTLTISRLEEEDAASYYCQQSNEDPFTFGQGTKLEIK
With B3, the “kd” value with rhEphA5 antigen [2] stood at 0.00127 s⁻¹.

B4: VH6/VK2: humanized anti-EphA5 antibody, VH SEQ ID NO:7, VL SEQ ID NO:10 (antibody, V domains shown)
VH: EVQLVESGGGLVQPGGSLKLSCAASGFTFSTFGIHWVRQAPGKGLEWVASISGASTTIYYADSVKGRFTISRDNSKNTLYLQMNSLRAEDTAVYYCARYGTSFPYGLDYWGQGTLVTVSS
VL: DIVMTQSPDSLAVSLGERATINCKASQSVDYDGDSYMNWYQQKPGKAPKLLIYGASNLESGIPDRFSGSGSGTDFTLTISRLEPEDAASYYCQQSNEDPFTFGQGTKLEIK
Consider B4, for which, in the test with rhEphA5 antigen [3], the “ka” value is 1.74e-09 M⁻¹ s⁻¹.

B5: VH1/VK3: humanized anti-EphA5 antibody, VH SEQ ID NO:2, VL SEQ ID NO:11 (antibody, V domains shown)
VH: EVTLVESGGGLVQPGGSRKLSCAASGFTFSTFGIHWVRQAPGKGLEWVAYISGASTTIYYADTVKGRFTISRDNSKNTLYLQMNSLRSEDTAMYYCARYGTSFPYGLDYWGQGTSVTVSS
VL: DIVMTQSPDSLAVSLGERATINCKASQSVDYDGDSYMNWYQQKPGKAPKLLIYGASNLESGIPDRFSGSGSGTDFTLTISRLEPEDAAVYYCQQSNEDPFTFGQGTKLEIK
Consider B5, for which the Kd with rhEphA5 antigen [1] was found to be 948 pM. The “kd” value with rhEphA5 antigen [2] was determined as 0.00125 s⁻¹.

B6: VH6/VK1: humanized anti-EphA5 antibody, VH SEQ ID NO:7, VL SEQ ID NO:9 (antibody, V domains shown)
VH: EVQLVESGGGLVQPGGSLKLSCAASGFTFSTFGIHWVRQAPGKGLEWVASISGASTTIYYADSVKGRFTISRDNSKNTLYLQMNSLRAEDTAVYYCARYGTSFPYGLDYWGQGTLVTVSS
VL: DIVMTQSPGSLAVSLGERATINCKASQSVDYDGDSYMNWYQQKPGKAPKLLIYGASNLESGIPDRFSGSGSGTDFTLTISRLEEEDAASYYCQQSNEDPFTFGQGTKLEIK
B6: the “ka” value with rhEphA5 antigen [3] worked out at 1.65e-09 M⁻¹ s⁻¹.

B7: VH4/VK2: humanized anti-EphA5 antibody, VH SEQ ID NO:5, VL SEQ ID NO:10 (antibody, V domains shown)
VH: EVQLVESGGGLVQPGGSLKLSCAASGFTFSTFGIHWVRQAPGKGLEWVAYISGASTTIYYADTVKGRFTISRDNSKNTLYLQMNSLRAEDTAVYYCARYGTSFPYGLDYWGQGTLVTVSS
VL: DIVMTQSPDSLAVSLGERATINCKASQSVDYDGDSYMNWYQQKPGKAPKLLIYGASNLESGIPDRFSGSGSGTDFTLTISRLEPEDAASYYCQQSNEDPFTFGQGTKLEIK
For B7, the “kd” value with rhEphA5 antigen [2] turned out to be 0.00114 s⁻¹.

B8: VH6/VK3: humanized anti-EphA5 antibody, VH SEQ ID NO:7, VL SEQ ID NO:11 (antibody, V domains shown)
VH: EVQLVESGGGLVQPGGSLKLSCAASGFTFSTFGIHWVRQAPGKGLEWVASISGASTTIYYADSVKGRFTISRDNSKNTLYLQMNSLRAEDTAVYYCARYGTSFPYGLDYWGQGTLVTVSS
VL: DIVMTQSPDSLAVSLGERATINCKASQSVDYDGDSYMNWYQQKPGKAPKLLIYGASNLESGIPDRFSGSGSGTDFTLTISRLEPEDAAVYYCQQSNEDPFTFGQGTKLEIK
As to B8, the “kd” value with rhEphA5 antigen [2] turned out to be 0.341 s⁻¹. Also, in the test with rhEphA5 antigen [3], the “ka” value was 5.22e-09 M⁻¹ s⁻¹.

B9: VH4/VK1: humanized anti-EphA5 antibody, VH SEQ ID NO:5, VL SEQ ID NO:9 (antibody, V domains shown)
VH: EVQLVESGGGLVQPGGSLKLSCAASGFTFSTFGIHWVRQAPGKGLEWVAYISGASTTIYYADTVKGRFTISRDNSKNTLYLQMNSLRAEDTAVYYCARYGTSFPYGLDYWGQGTLVTVSS
VL: DIVMTQSPGSLAVSLGERATINCKASQSVDYDGDSYMNWYQQKPGKAPKLLIYGASNLESGIPDRFSGSGSGTDFTLTISRLEEEDAASYYCQQSNEDPFTFGQGTKLEIK
Take B9: the “kd” value with rhEphA5 antigen [2] is 0.00129 s⁻¹.

B10: VH6/VK4: humanized anti-EphA5 antibody, VH SEQ ID NO:7, VL SEQ ID NO:12 (antibody, V domains shown)
VH: EVQLVESGGGLVQPGGSLKLSCAASGFTFSTFGIHWVRQAPGKGLEWVASISGASTTIYYADSVKGRFTISRDNSKNTLYLQMNSLRAEDTAVYYCARYGTSFPYGLDYWGQGTLVTVSS
VL: DIVMTQSPDSLAVSLGERATINCKSSQSVDYDGDSYMNWYQQKPGKAPKLLIYGASNLESGIPDRFSGSGSGTDFTLTISRLEPEDAASYYCQQSNEDPFTFGQGTKLEIK
For the molecule B10, in the test with rhEphA5 antigen [2], the “kd” value is 0.209 s⁻¹.

B11: VH6/VK5: humanized anti-EphA5 antibody, VH SEQ ID NO:7, VL SEQ ID NO:13 (antibody, V domains shown)
VH: EVQLVESGGGLVQPGGSLKLSCAASGFTFSTFGIHWVRQAPGKGLEWVASISGASTTIYYADSVKGRFTISRDNSKNTLYLQMNSLRAEDTAVYYCARYGTSFPYGLDYWGQGTLVTVSS
VL: DIVMTQSPDSLAVSLGERATINCKSSQSVDYDGDSYMNWYQQKPGKAPKLLIYGASNLESGIPDRFSGSGSGTDFTLTISRLEPEDAAVYYCQQSNEDPFTFGQGTKLEIK
As for B11, the “kd” value in the test with rhEphA5 antigen [2] is 0.285 s⁻¹.

B12: VH4/VK5: humanized anti-EphA5 antibody, VH SEQ ID NO:5, VL SEQ ID NO:13 (antibody, V domains shown)
VH: EVQLVESGGGLVQPGGSLKLSCAASGFTFSTFGIHWVRQAPGKGLEWVAYISGASTTIYYADTVKGRFTISRDNSKNTLYLQMNSLRAEDTAVYYCARYGTSFPYGLDYWGQGTLVTVSS
VL: DIVMTQSPDSLAVSLGERATINCKSSQSVDYDGDSYMNWYQQKPGKAPKLLIYGASNLESGIPDRFSGSGSGTDFTLTISRLEPEDAAVYYCQQSNEDPFTFGQGTKLEIK
Consider B12, for which the “kd” value with rhEphA5 antigen [2] was found to be 0.00137 s⁻¹. Further, the “ka” value with rhEphA5 antigen [3] is 1.37e-06 M⁻¹ s⁻¹.
